Laboratory results taken from a protein production outcome set (Wang et al. 2014).

Assay: label from the status in PepcDB records

| Sequence | protein production |
| --- | --- |
| MVKVLILGQGYVASTFVAGLEKLRKGEIEPYGVPLARELPIGFEDIKIVGSYDVDRAKIGKKLSEVVKQYWNDVDSLTSDPEIRKGVHLGSVRNLPIEAEGLEDSMTLKEAVDTLVKEWTELDPDVIVNTCTTEAFVPFGNKEDLLKAIENNDKERLTATQVYAYAAALYANKRGGAAFVNVIPTFIANDPAFVELAKENNLVVFGDDGATGATPFTADVLSHLAQRNRYVKDVAQFNIGGNMDFLALTDDGKNKSKEFTKSSIVKDILGYDAPHYIKPTGYLEPLGDKKFIAIHIEYVSFNGATDELMINGRINDSPALGGLLVDLVRLGKIALDRKEFGTVYPVNAFYMKNPGPAEEKNIPRIIAYEKMRIWAGLKPKWL | not failed |
| MSFEAFTELYIRDVKNRLKENTWLTKEHIIRTKILPFFGKLKISEISTKEIITWQNEMLAYRDEKKKPYSQTYLKTLHNQLSAIFNHAVRYYELRSNPAAKVGNMGSELEHHHHHH | not failed |
| MIYDLHSHSTASDGMLTPTELILRAVEQKVDVLALTDHDTLAGIQEAKIAAESQPIQLISGVEISALWQNKNIHLTALDIDEHHPALIELLQHHAVLREQRAVEIGEKLAKAGIPNAYHGAKMLANGEVTRAHYARFLVQQDYVRNIEHAFKKYLGTGKIAYVKPQWSSISHVIDVTHQAGGVICLAHPLRYKMTARWLRALIEHFKQAGGDGIEVASCGQRPDQRQLIARWASEFDLYASVGSDFHYPTGWIELGKSLTLPTTCKPIWQLFTTQ | failed |
| MKQIVAGIVAHVDAGKTTLSEALLYRTGEIRKLGRVDHGDAFLDTNSLEKARGITIFAHQALVEHGDLRLTLLDTPGHVDFAAETERVLRVLDYAILVVSGTDGVQGHTETLWRLLARYGVPTFIFVNKCDAAGFAREAILAQLRKRLSDAIYPLPAMEQFTEGSAVPLDAFAEDIATLDEEAMNDYLEHGVLSVGRLRSMIAVRELFPVYFGSALKLEGVEEFLDGLETFTREREWPAAFAARVFKIAHDGQHNRMTWLRVTGGALKAKEIVSSSSCAAASTPSPAQEDDGMAWSEKVDQVRIYNGAKFETVTEVPAGSVCAVTGLTRTFPGEGLGAEPDAESPSLQPVLTYTVLPAGAESDTAGTSGAAKRGGTGHDSVNRDDAEHDAAKSETGRNEENDTAGQDAETDNSSPALPQFDDLTLHKVITALRELEDEDPLLHVVWVERLAEIHVQLMGTVQLEIIQQTLHDRFGLDVSFGPGSILYRETITAPVEGAGHFEPLRHYAEAHILLEPGEPGSGVTVGSALSENDLDRNWQRLILTHLTEREHLGVLVGAPLTDIKMTLVAGRAHLKHTEGGDFRQATYRAIRQGLMEARAGVSGRPETPVESRPDTTGEGNCRLLEPWYRFRLEVPADMIGRAMSDIQRMAGTFESPVTDGEYAVIEGEAPVSEMRDYAMDVNQYTHGHGHFSATFGGYKPCHDAKQVIAAAAYDPEADLDNTPDSVFCAHGAGYPVKWYKVPEFAHVDYVM | failed |
| MDPAVFEEWMMIILVTVLIGFMGFIVWDLAKKSKAGKFGTLILFFVLGLGVLAFIIKSVVVGFLEGV | failed |
| MELLRPEATVLSLGRRVLSFDREGRPYHYFREGKTYKRALDGSLHLRYREGERRRRRLAPEEALGVYQEVLDLAEAHLRDERRREEVLRWTPEGLLDPTPYRRAYAWPVSILPPDAYLSVVLQATTGCTWNRCAFCSFYQDRPFQKRTPEAFREHIQAVLALLGRGRLLRRGVFLADGNALALSEPLLPLLELVRAHFPGEPVMGFLDLFTGLKKAPSWWERLGGMGLRRVYIGLETGHAPLLALLRKPGHPKEVLPLVRALKAAGLSVGVILMVGAGGKAFAEAHFRESLALLAELPLGRGDVVYLSPFREDPGTPYAALGLAPLEDLEGELQRWAQAVRRLGLRASRYEIREFLY | failed |
| GTGLHCLSIERDLMKKFHLKDAFIIPTPVNNYHASLGKAAAQYLETHLQQGDLLGIGWGETISKMLENIHFETSINLSIVTLTGGVNHYLSRKQNYLHYMQGDLHIIPTPFLASTTEMAQSILSEPSVKDMLHVASLAHTAIVGIGGLSQDATIVKEEKLTLREMTYIRSQNGAGDILGQFYNTNGDLLELSHHNRLIGTPLSILRNMNHVVGVAGGTEKIDAIYGALKGKFIHTLITDEETALSLLRKDGDC | failed |
| MAYEERRSSILDSFSLSPLPYPVLLILAVASVFLLSSWYFSLEEAAESAEEQINFALLLIPLFLIVLVRWLSSMENPDALLGMFSSSRRTTYVSPGAGGDGGSSPWGVAALIVLLLVLLQYQSSFLEMWSG | failed |
| MPTPAPSADSTAERRHREKDTPLHRAARRGDADAVRELLARGAEIDALDDKGRTPYRLALDAGHPEIARWLAAAGADRHRSAAGTPGESEKRPRHPPSRLSSKDGIDGYPGWPALTVAAWRGHASTVETLLARGADVAARAPDGHTPLTRAAWNGHAGIVKILLAHGAEADVATPDGRTALMWAAREGHGEVVAVLAAAGARLDATDGDGNTALSWAAQRGKATTVRVLCSLGAATGVARKDGRTPIMLAALGGHPESVEVLLAASADPNATDADGHTALWHAVDGGHSGIVEILLAHGASFDRDRAPGHDALARAAWKGDEKTAGLLLAYGARVDAPSGDGNTALAVAAGRGHAGVIRLLLRKGANPDRRNRRNMTALMLAAQAGHSETVAALLEAGADPTLRNRHRHTAVSLARAGGHEDCVKILEKHRVGRRTLLGFLW | failed |
| MSPIEHAVISAAGIGSRLGLNKPKCLVEVGGKTLLAQHLERLAEIPNVWVVVGFQEELVIEQVRNLRRDAIIVRNPDFDRTNTLQSIHRVSRYLDRRFLAVDGDTFIENRSFERFLRAAAGQAGLIGVSRYTTSDGVRVLLDAGGEAVTAFTREPQHAYEWTGIAILRPDMVVDRPIYVYQALEPYLPLPAQELDAFDIDTASDLDMARRVHLNNWNLND | failed |
| MPDYDLIAILGPTASGKTPFAAALAAELNTEIISADSRQIYRGMDLGTGKDLEDYTINGRQIPYHLIDIADPGYKYNVFEYQRDFLTAYETIKQKGCLPVLCGGTGLYLESVLKGYRLIPVPENQELRVRLAEKSLEELTAILSSYKTLHNSTDVDTVKRAIRAIEIEEYYAKTPIEEREFPQLNSLIIGVDIDRELRREKITRRLKQRLDDGMVEEVRRLLAEGIQPDDLIYYGLEYKYLTLYAIGKMTYDEMFTGLETAIHQFAKRQMTWFRGMERRGFTIHWVDASLPMEEKINFVKQKLKEFLEHHHHHH | not failed |
| MGHHHHHHSHMISWLTGEELHVEVLENVPLTTHNFVRKTFFTLAFCDFCRKLLFQGFRCQTCGYKFHQRCSTEVPLMCVNYDQLDLLFVSKFFEHHPIPQEEASLAETA | not failed |
| MYLCGSNQSRKETLENKRYNNVEEWANTLSHGAGILLGVIAGYFLLAKAAAGAEPKWAVACVTVYLFGMLSSYVSSTWYHGSRPGKLKELLRKFDHGAIYLHIAGTYTPFTLLVMRHAGGWGWGIFSFVWLSAIVGFILSFKKLKEHSNLETACYIAMGACILVAMKPLMDHLAEMGAGPAFWWLIGGGVSYIIGAVFYSLRKPYMHATFHLFCLGGSIGHIIAIWLIL | failed |
| MVQSSVRRKGARPRDRQTGEPGWDDSLYDDNGEPVQDGRGSGRGGGSAQGGGDGDGPPDEAKGHSRHGGGRRRGGKGDGGGGRPRRRRRVLRWSATVLAVLILGTAGAGYLYYQHLNDNIKKDDLYLGDDKDRAAKPKANAAGQTPLNILLIGSDARDSAANQKLGGAKDTYGGTPRADVQMLLHLSADRSNMSVVSMPRDTLLEIPKCTDPKTSHTYAAITYPTMTNNSLGRGGPGCTVATWEKFTDIHIDHFMMVDFAGVVSMADAIGGVPVCVDANIYSHTSTGHGSGLKLKDGTTSIKGKQALQWLRTRYGFEDGSDIGRTKAQHQYMNSMVRQLRENATLSNPNKLRKLAETATNALTVDDGLGTVSKLYDLSKELKKVPTSRITMTTMPWVYSSDGNRVLPKPNDAAKVFRLLREDIALDGKDKKKSPAQKAVAPAHADDKIAVQVQNGTRTSALAPVGGRANAMAQLLVGKGFTGAAADSSTVLSEDKTVIRYPSADLKGDAQRVAKSLGVPLSSVEKSASVSGVTLIVGGDWRSGTTYKAAEDDDTTPASAKLDKGSDTGACMHVDPDYTWS | failed |
| MFIGRNQELTALNKLYQEDSFQFAVIYGRRRIGKTSLINQFLKGKRAIYFTGLEENALENLARFSDAIHAYEDPSYLDGPNFASFEQAFKYLVHLSEKNDRLILVIDEFPYLAKAYPPISSMLQSYIDHYFKQNKLFLILCGSSMPFMEKQVLGYKSPLYGRRTAQFKLKPFSLHDAEEFFPQLNKEEVFELNAITGGIPLYLSLMSPKKSLRENIKDNFLTTSAMLYAEPMSLLNQELREPASYSSIISAIAAGASRQSEISTKTGIASGALSPYLDNLIDLGIVEKRLPVTELDKARSRKTIYAIKDGMFRFWYTFVGKRVSFIERGITEPILDYIIKQLPHFMGPEFEKLSQEYLWSKLFDPDLVPEPFVNLGNWWGPDPKEKKQVEMDIVGFDDQKLNGYFGECKWKNEPISADILETLIYRSILFPTPKKNYYLFSKTGFTDKCQQLAQQVDCHLITFDMM | failed |
| MSASIRDAGVADLPGILAIYNDAVGNTTAIWNETPVDLANRQAWFDTRARQGYPILVASDAAGEVLGYASYGDWRPFEGFRGTVEHSVYVRDDQRGKGLGVQLLQALIERARAQGLHVMVAAIESGNAASIGLHRRLGFEISGQMPQVGQKFGRWLDLTFMQLNLDPTRSAP | not failed |
| MAEAHVTKVGIVGIGFIGSDHLHRLTKTVANVDVTAVCDIVPGKAQKALDQQGLTATTYEDYHDLVNDPNVEVVVCTANNEAHYEIVMAALKAGKFTFCEKPLALDAKQCMDIIDSEKKLGRRMLQVGFMRHYAPEYVQMKKMIDDGVIGKPLMMDQRHYNQTQPEEYDSSRSIIETAIHEIDIDHWLVNDDYANIRVFSPKQTRHVQNAKIQDPQIVMIETKSGINIINEVFVRCQYGYDIKCDVIGEEGVLELPTVPQVATRLNAQYSTAILTDWKARFESAYDIEFRDFINHVSQNESPVGPSAWDGYIAAVTADAALKSLAEDGAKQDLDFPSTPAFYTESEKVSE | failed |
| MSDHEAGHKFLARLGKKRLRPGGRKATEWLLSQAAFRQDSVVLEVACNMGTTAMEIARRFGCKVIGADMDKAALQKAQENVAANGLASQVTIMQANALELPFPDNHFDVVINEAMLTMYADKAKSRIIAEYYRVLKPGGRLITHDIMLLSEKDTGALQAVEQMHKAINVHAQPMLRERWVTLFQECGFSKVNYDNGAMTLLTPQGLIYDEGVAGAARIVKNALKKENRSMFFNMFHTFRRNRNQLNYIAVCSTK | failed |
| MGKFTQRLSLRVRLTLIFLILASVTWLLSSFVAWKQTTDNVDELFDTQLMLFAKRLSTLDLNEINAADRMAQTPNRLKHGHVDDDALTFAIFTHDGRMVLNDGDNGEDIPYSYQREGFADGQLVGEDDPWRFVWMTSPDGKYRIVVGQEWEYREDMALAIVAGQLIPWLVALPIMLIIMMVLLGRE | not failed |
| FKVPPFQDCILSFLGFSDEEKHSMEEMTEMQGGSYLPVGDERCTHLIVEENTVKDLPFEPSKKLFVVKQEWFWGSIQMDARAGETMYLYEKANTPE | not failed |
| MKLSQQSQAIIESAIQKAINKYTCGCEQTIVTDIHIQPNQNSGELFIYDDEDEELSSVTIDEWTAYEGDDFCEDAERIFRTVLCRMKENGSFDKLTILKPYSFVLVDEDKETISELLLVDDDTLLVNDELLKGLDKELDDFLKDLLEKLEHHHHHH | not failed |
| SLRLHAGVWGLKVRYEGSFEVSKTPEEVFEFLTDPKRFSRAFPGFKSVEVEDGSFTIELRLSLGPLRGDARVRASFEDLEKPSKATVKGSGRGAGSTLDFTLRFAVEPSGGGSRVSWVFEGNVGGLAASMGGRVLDSLARRMINDVISGVKRELGEA | not failed |
| MAASMARGVSARVLLRAAGGSWGPRAGHAAVTSRTFGSTGERRAGEDEADSPELPRDVVNVVFVDRSGKRIPVRGRVGDNVLHLAQRHGVDLEGACEASLACSTCHVYVSEAHLDLLPPPEEREDDMLDMAPLLQENSRLGCQIVLTPELEGAEFALPKITRNFYVDGHIPKPH | failed |
